# Reference: US9777044B2, “GLUT-1 as a receptor for HTLV envelopes and its uses” (CENTRE NATIONAL DE LA RECHERCHE SCIENTIFIQUE (CNRS), priority 2003, dated 2017)
# T1: GLUT-3 (Homo sapiens, UniProt P11169)
# T1 construct: factor Xa cleavage site + 2x HA + His (pCHIX cassette) (C); expressed in transfected cells; host or cells: 293T cells
# T1 sequence (P11169 1-496): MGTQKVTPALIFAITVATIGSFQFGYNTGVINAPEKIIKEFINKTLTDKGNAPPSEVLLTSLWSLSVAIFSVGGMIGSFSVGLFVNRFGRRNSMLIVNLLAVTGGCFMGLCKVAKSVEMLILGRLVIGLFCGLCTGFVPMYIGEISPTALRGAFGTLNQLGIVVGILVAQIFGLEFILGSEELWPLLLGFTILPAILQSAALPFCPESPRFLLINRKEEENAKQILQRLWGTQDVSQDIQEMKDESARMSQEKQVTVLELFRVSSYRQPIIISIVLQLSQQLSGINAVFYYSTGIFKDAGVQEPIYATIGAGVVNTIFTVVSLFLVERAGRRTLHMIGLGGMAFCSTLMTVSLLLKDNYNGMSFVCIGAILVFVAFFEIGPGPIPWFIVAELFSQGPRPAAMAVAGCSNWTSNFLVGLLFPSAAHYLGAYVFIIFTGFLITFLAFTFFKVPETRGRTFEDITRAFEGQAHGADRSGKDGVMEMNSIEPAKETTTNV
# B1: H1RBD: first 215 residues of HTLV-1 SU fused to a C-terminal rabbit IgG Fc tag (rFc) (protein)
# chain: DYSPSCCTLTIGVSSYHSKPCNPAQPVCSWTLDLLALSADQALQPPCPNLVSYSSYHATYSLYLFPHWIKKPNRNGGGYYSASYSDPCSLKCPYLGCQSWTCPYTGAVSSPYWKFQQDVNFTQEVSRLNINLHFSKCGFPFSLLVDAPGYDPIWFLNTEPSQLPPTAPPLLPHSNLDHILEPSIPWKSKLLTLVQVDVPRDCGCKPCICTVPEVSSVFIFPPKPKDVLTITLTPKVTCVVVDISKDDPEVQFSWFVDDVEVHTAQTQPREEQFNSTFRSVSELPIMHQDWLNGKEFKCRVNSAAFPAPIEKTISKTKGRPKAPQVYTIPPPKEQMAKDKVSLTCMITDFFPEDITVEWQWNGQPAENYKNTQPIMDTDGSYFVYSKLNVQKSNWEAGNTFTCSVLHEGLHNHHTEKSLSHSPGK
# Columns and labels:
# 293T cells [1] = test: Glucose consumption of transfected cells; assay type: cell-based, human; conditions: normalized to cellular protein content
# Method: Envelope expression and metabolic measurements. 293T cells were transfected with the various envelope expression vectors using a modified version of the calcium phosphate method. After an overnight transfection, cells were washed in phosphate-buffered saline (PBS) and fresh medium was added. Media were harvested at the indicated time points, filtered through a 0.45-μm pore-size filter, and lactate and glucose were measured with enzymatic diagnostic kits (Sigma). Values were normalized to cellular protein content using the Bradford assay (Sigma) after solubilization of cells in lysis buffer (50 mM Tris-HCl pH 8.0, 150 mM NaCl, 0.1% sodium dodecyl sulfate, 1.0% Nonidet P-40, 0.5% deoxycholate) and clarification by centrifugation.
# 293T cells [2] = test: Hexose uptake assay: 2-deoxyglucose; assay type: cell-based, human; conditions: transfected 293T cells vs control cells
# Method: Assay of hexose uptake. 2-deoxy-D[1-^3H]glucose, D[U-^14C]fructose and 3-O-[^14C]methyl-D-glucose were obtained from Amersham. Hexose uptake assay were adapted from Harrison et al. 1991). After transfection, approximately 250,000 were seeded/well in 24-well plates. […] Uptake was initiated by adding labeled hexoses to a final concentration of 0.1 mM (2 μCi/ml for 2-2-deoxy-D[1-^3H]glucose and 0.2 μCi/ml for D[U-^14C]fructose and 3-O-[^14C]methyl-D-glucose) and cells were incubated for 5′ additional minutes. Cells were then resuspended in 500 μl cold serum-free glucose-free DMEM, wash one time in serum-free glucose-free DMEM, and solubilized in 400 μl of 0.1% SDS. 3 μl was used for Bradford normalization, while the rest was used for detection of either ^3H or ^14C by liquid scintillation in a Beckman counter.
# GLUT-3 = molecular target: T1, GLUT-3; test: RBD binding to cells overexpressing GLUT-3
# Text: In order to directly test the ability of HTLV envelopes to bind GLUT-1, we derived a tagged GLUT-1 expression vector and overexpressed this protein in HeLa cells. […] GLUT-3 is the closest isoform to GLUT-1, and transports glucose with kinetics similar to that of GLUT-1. Thus, we derived a tagged GLUT-3 expression vector. […] To determine if GLUT-1 transfected cells were directly responsible for the observed increased in H1RBD binding, we derived fluorescent tagged GLUT-1 and GLUT-3 to uniquevocally identity GLUT-overexpressing cells in the course of our FACS analysis. […] Consequently, we tested if HTLV glycoproteins directly interact with GLUT-1 proteins. To this end, we evaluated the ability of H1RBD to immunoprecipitate GLUT-1. […] Therefore, the GLUT-1 glucose transporter is an essential component of the HTLV envelope receptor.
# (§1) Expression vectors. Full length envelope expression vectors for HTLV-1 (pCEL/2[Denesvre, 1995]) and Friend ecotropic MLV (pCEL/F [Denesvre, 1995]), have been previously described. For the HTLV-2 envelope, a fragment from pHTE2 [Rosenberg, 1998] encompassing the tax, rex and env genes and the 3′ LTR was inserted in the pCSI [Battini, 1999] vector (pCSIX.H2). […]
# (§2) Binding assays. […] Binding was analyzed on a FACSCalibur (Becton Dickinson) and data analysis was performed using CellQuest (Becton Dickinson) and WinMDI (Scripps) softwares.
# murine erythrocytes = test: RBD binding on murine erythrocytes
# MCT1 and CD147 = test: RBD binding upon overexpression of MCT1 and CD147; parameters: species or system human
# Text: Extracellular lactate accumulates in cell cultures following its transport across cellular membranes by the MCT1 monocarboxylate transporter [Garcia, 1994]. Because HTLV and MLV share a common organization of the extracellular envelope [Kim, 2000] and the receptors for MLV Env are multispanning metabolite transporters [Overbaugh, 2001], we assessed whether the HTLV RBD bound to MCT1. Moreover, similar to our previous data concerning expression of the HTLV receptor on T cells [Manel, 2003], expression of MCT1 chaperone CD147 [Kirk, 2000] increases during T cell activation [Kasinrerk, 1992].
# as §1, §2
molecule,measurement,setting,value
B1,Glucose consumption compared to control cells,293T cells [1],significantly decreased
same,decrease in 2-deoxyglucose uptake,293T cells [2],approximately 4 fold
same,binding upon GLUT-3 overexpression,"GLUT-3; 293T cells, tagged GLUT-3",did not induce any increase
same,H1RBD binding to cells overexpressing GLUT-3-DsRed2,"GLUT-3; fluorescent tagged GLUT-3, FACS analysis",no effect
same,binding on murine erythrocytes,murine erythrocytes,no significant H1RBD binding could be detected
same,H1RBD binding upon separate and combined overexpression of MCT1 and CD147,MCT1 and CD147,did not result in increased H1RBD binding
